Assay results: US20040002450A1, “Y17 - isolated molecules comprising epitopes containing sulfated moieties, antibodies to such epitopes, and uses thereof” (priority 2000, published 2004)

Legend:
washed platelets = assay: Ristocetin-induced agglutination of washed platelets after scFv preincubation; assay type: cell-based, human; conditions: for % inhibition / % agglutination: washed platelets; for % inhibition: ristocetin; for % agglutination: ristocetin = 100%
Procedure: Aggregation is determined in PRP due to the presence of thrombotic agents, while agglutination is determined in washed platelets. The effect of Y1 (scFv) on agglutination of washed platelets was tested at various concentrations of Y1. Platelets were pre-incubated with Y1 scFv, Y17 scFv, Y16-scFv, or a control TM-1 scFv for 4 min at 37° C. before being exposed to ristocetin, an inducer of platelet agglutination and aggregation.
Platelet concentrate in acid-citrate-dextrose (ACD) was obtained from a blood bank, platelets were isolated, washed once in buffer containing ACD and saline in a ratio of 1:7. The platelets were centrifuged at 800 g for 10 min after each wash and were resuspended in Tyrodes solution (2 mM MgCl2, 137 mM NaCl, 2.68 mM KCl, 3 mM NaH2PO4, 0.1% glucose, 5 mM Hepes and 0.35% albumin, pH 7.35) and count the number of cells.
(§1) For platelet aggregation studies, platelet rich plasma (PRP) and washed platelets were stirred at 500 rpm at 37° C. in whole blood Lumiaggregometer (Chronolog, Havertown, Pa.). The difference in light transmission through the platelet suspension and suspending medium was taken as 100% aggregation. The effect of Y1 on platelet aggregation was evaluated by addition of different concentration of Y1 before the addition of agonist, and the effect was recorded for four minutes.
The effect of Y17-scFv on vWF-dependent agglutination of platelets was tested at different concentrations of Y17.

[1] = tested on: platelet-rich-plasma (PRP); assay: Ristocetin-induced aggregation of platelet-rich-plasma after scFv preincubation; assay type: cell-based, human; conditions: for % inhibition: ristocetin
Procedure: The effect of Y1 (scFv) on aggregation of platelet-rich-plasma (PRP) was tested at various concentrations of Y1. PRP was pre-incubated with Y1 scFv, Y17 scFv, or a control sTM-1cFv for 4 min at 37° C. before being exposed to ristocetin, an inducer of platelet agglutination and aggregation. A reversible inhibitory effect was observed when scFv was added to PRP prior to the addition of ristocetin, and it was dose dependent.
Blood was collected into a tube containing 3.8% sodium citrate. Platelet-rich plasma was prepared by centrifugation at 250×g for 10 minutes.
as §1

[2] = tested on: glycocalicin, platelet lysate, KG-1 cell lysate, Raji cell lysate; assay: Western blot on glycocalicin and cell lysates; assay type: binding, human
Procedure: Antibodies against GPIbα (CD42b) recognize platelet lysate and glycocalicin and but not KG-1 cell lysate (a Y1 binding positive myeloid cell line) or Raji cell lysate (a B cell line that is negative for Y1 binding at concentrations at which KG-1 cells are positive for Y1 binding). […] (FIG. 20).
The nitrocellulose membrane was blocked using 5% skim milk for one hour at room temperature. The membrane was then washed 3 times for 5 minutes each with 0.05% Tween 20 in PBS at room temperature. The membrane was incubated with 5 μg/ml Y1-biotin (or 181-biotin) in 2% skim milk in PBS for one hour at room temperature. The membrane was then washed 3 times for 5 minutes each with cold 0.05% Tween 20 in PBS in the cold room (about 4 to about 10° C.). The membrane was then incubated in the cold room with a 1:1000 dilution of SAV-HRP (streptavidin-HRP) (at a final concentration of […]) in 2% skim milk, 0.05% Tween. The dilution was carried out at room temperature (about 25° C.), then the diluted SAV-HRP was cooled on ice for 10-15 minutes before use. The incubation was carried out for 1 hour with gentle shaking. After the incubation with SAV-HRP, the membrane was washed, as above. The membrane was then incubated with Super Signal mixture (Pierce) for 5 minutes as directed in the commercial protocol, then excess solution was dried. […]

[3] = tested on: platelets, KG-1, Raji and T2 cells; assay: FACS binding profile on platelets and human cell lines
Jurkat cells = assay: FACS binding to Jurkat cells; design: species or system human; conditions: 1 μg scFv-Y1 versus 5 ng IgG-Y1; two-step staining
From the text: The present invention is directed to Y1 and Y17 multimers prepared by any known method in the art. A preferred method of forming multimers, and especially dimers, employs the use of cysteine residues to form disulfide bonds between two monomers. In this embodiment, dimers are formed by adding a cysteine on the carboxyl terminus of the scFvs (referred to as Y1-cys scFv or Y1 dimer) in order to facilitate dimer formation. After the DNA construct was made (See Example 2D and 6D) and used for transfection, Y1 dimers were expressed in a production vector and refolded in vitro. The protein was analyzed by SDS-PAGE, HPLC, and FACS. […] Two peaks were detected by SDS-PAGE (non-reduced) and by gel filtration. The peaks were collected separately and analyzed by FACS. […] Conditions for dimer refolding were determined, and material comprising >90% dimers (mg quantities) was produced after subsequent dialysis, chromatographic, and gel filtration steps. […]
FACS analysis was performed on Jurkat cells using a “three step staining procedure.” First, crude extracts or purified unlabeled scFv are stained, then mouse anti-myc antibodies, and finally, FITC— or PE-conjugated anti-mouse antibodies. […] After the final staining step, cells were fixed by re-suspending in PBS, 1% BSA, 2% formaldehyde, and then read by FACS (Becton-Dickinson).

B1: Y1 scFv: fully human scFv clone binding platelets and myelogenous leukemia cells; SEQ ID NO: 25, heavy chain CDR3 SEQ ID NO: 8 (protein, listed as Homo sapiens)
scFv: MKYLLPTAAAGLLLLAAQPAMAEVQLVESGGGVVRPGGSLRLSCAASGFTFDDYGMSWVRQAPGKGLEWVSGINWNGGSTGYADSVKGRFTISRDNAKNSLYLQMNSLRAEDTAVYYCARMRAPVIWGQGTLVTVSRGGGGSGGGGSGGGGSSELTQDPAVSVALGQTVRITCQGDSLRSYYASWYQQKPGQAPVLVIYGKNNRPSGIPDRFSGSSSGNTASLTITGAQAEDEADYYCNSRDSSGNHVVFGGGTKLTVLGAAAEQKLISEEDLNGAA
effect on ristocetin-induced agglutination of washed platelets (in words) (washed platelets; 4 μg/ml): No inhibition
effect on ristocetin-induced agglutination of washed platelets (in words) (washed platelets; 12.5 μg/ml): only partial inhibition
effect on ristocetin-induced agglutination of washed platelets (in words) (washed platelets; 25 μg/ml): inhibited agglutination
% inhibition (washed platelets; scFv 4 μg/ml): 8%
% agglutination (washed platelets; scFv 4 μg/ml): 92%
% inhibition (washed platelets; scFv 12.5 μg/ml): 33%
% agglutination (washed platelets; scFv 12.5 μg/ml): 67%
% inhibition (washed platelets; scFv 25 μg/ml): 77%
% agglutination (washed platelets; scFv 25 μg/ml): 23%
effect on ristocetin-induced platelet aggregation in PRP (in words) ([1]; 25 μg/ml): no significant inhibition
% inhibition ([1]; scFv 25 μg/ml, PRP): 13%
% aggregation ([1]; scFv 25 μg/ml, PRP, ristocetin = 100%): 87%
% inhibition ([1]; scFv 50 μg/ml, PRP, first 4 minutes): 80%
recognition of glycocalicin, platelet lysate, KG-1 and Raji cell lysate [2]: recognized both glycocalicin, platelet lysate, and KG-1 cells, but not Raji cell extract
binding to Raji and T2 cells [3]: do not bind
fold more molecules needed for a level of detection similar to IgG-Y1 (Jurkat cells): approximately 10^3 fold
